Test results reported in doi:10.1101/2025.02.20.639385.

Molecular target: MBP-RAB23T22N (Chlamydomonas reinhardtii)
Assay: SEC

Q: Which stoichiometry N does the source give for “RAB18S22N (bacterially expressed, 6×His-tag removed) (natural protein)” here?
A: 1
